Assays:
[1] = target: T1, recombinant human IL-12 receptor (clone No. 5, SEQ ID NO:2) expressed in COS cells (human); assay: steady state binding of 125I-IL-12 to COS cells expressing rIL-12R, Scatchard (Figure 4A)
T1 construct: 662 amino acid precursor; signal peptide cleavage is only predicted (after Gln20, Ala23 or Cys24); On COS cells present as monomers and disulfide-bonded dimers/oligomers; also called rIL-12R; human rIL-12R

[2] = target: T2, natural human IL-12 receptor on IL-12R positive human cells (human, UniProt P42701 24-662); assay: steady state 125I-IL-12 binding to YT cells, Scatchard, site 2 of 2
T2 construct: whole, on cells; IL-12 sees up to 3 classes of sites on these cells; also called natural IL-12R

[3] = target: T2, natural human IL-12 receptor on IL-12R …; assay: steady state 125I-IL-12 binding to Kit-225 cells, Scatchard, site 2 of 3
[4] = target: T1, recombinant human IL-12 receptor (clone …); assay: equilibrium binding of labelled human IL-12 to COS cells expressing clone 5, Scatchard, single site (Figure 19A)
[5] = target: T2, natural human IL-12 receptor on IL-12R …; assay: steady state 125I-IL-12 binding to K6 cells, Scatchard, site 3 of 3
[6] = target: T2, natural human IL-12 receptor on IL-12R …; assay: steady state 125I-IL-12 binding to PHA-PBMC (5-7 days), Scatchard, site 1 of 3
[7] = target: T3, human IL-12 receptor subunit stably expressed on murine CTLL cells (human); assay: IL-12 binding to murine CTLL cells stably expressing the IL-12 receptor subunit
T3 construct: CTLL transfectants express only receptor subunit monomers; also called CTLL transfectant; CTLL cell transfectant

[8] = target: T4, detergent solubilized IL-12R from IL-12R positive human cells (human, UniProt P42701 24-662); assay: steady state binding of 125I-IL-12 to IL-12R immunoprecipitated by immobilized 2-4E6 from detergent extract of K6 cells, Scatchard
T4 construct: Whole natural receptor protein in detergent extract, not a truncated soluble form; also called soluble IL-12R; approximately 90 kDa protein

[9] = target: T2, natural human IL-12 receptor on IL-12R …; assay: steady state 125I-IL-12 binding to K6 cells, Scatchard, site 2 of 3
[10] = target: T2, natural human IL-12 receptor on IL-12R …; assay: steady state 125I-IL-12 binding to Kit-225 cells, Scatchard, site 1 of 3
[11] = target: T2, natural human IL-12 receptor on IL-12R …; assay: steady state 125I-IL-12 binding to YT cells, Scatchard, site 1 of 2
[12] = target: T2, natural human IL-12 receptor on IL-12R …; assay: steady state 125I-IL-12 binding to K6 cells, Scatchard, site 1 of 3
[13] = target: T2, natural human IL-12 receptor on IL-12R …; assay: steady state 125I-IL-12 binding to PHA-PBMC (5-7 days), Scatchard, site 3 of 3
[14] = target: T2, natural human IL-12 receptor on IL-12R …; assay: steady state 125I-IL-12 binding to PHA-PBMC (5-7 days), Scatchard, site 2 of 3
[15] = target: T2, natural human IL-12 receptor on IL-12R …; assay: steady state 125I-IL-12 binding to Kit-225 cells, Scatchard, site 3 of 3

B1: Recombinant human IL-12 (ligand)
chain 1: RNLPVATPDPGMFPCLHHSQNLLRAVSNMLQKARQTLEFYPCTSEEIDHEDITKDKTSTVEACLPLELTKNESCLNSRETSFITNGSCLASRKTSFMMALCLSSIYEDLKMYQVEFKTMNAKLLMDPKRQIFLDQNMLAVIDELMQALNFNSETVPQKSSLEEPDFYKTKIKLCILLHAFRIRAVTIDRVMSYLNAS
chain 2: IWELKKDVYVVELDWYPDAPGEMVVLTCDTPEEDGITWTLDQSSEVLGSGKTLTIQVKEFGDAGQYTCHKGGEVLSHSLLLLHKKEDGIWSTDILKDQKEPKNKTFLRCEAKNYSGRFTCWWLTTISTDLTFSVKSSRGSSDPQGVTCGAATLSAERVRGDNKEYEYSVECQEDSACPAAEESLPIEVMVDAVHKLKYENYTSSFFIRDIIKPDPPKNLQLKPLKNSRQVEVSWEYPDTWSTPHSYFSLTFCVQVQGKSKREKKDRVFTDKTSATVICRKNASISVRAQDRYYSSSWSEWASVPCS
modifications: ¹²⁵I label (Iodogen method) where used as tracer
notes: 75-KDa heterodimer of p35 and p40; also called HuIL-12; HUIL-12
Kd [1]: 2 to 6 nM
Kd [2]: 0.109 nM
Kd [3]: 0.21 nM
Kd [4]: 3.4 nM
Kd [5]: 2.4 nM
Kd [6]: 0.018 nM
Kd [7]: ≥ 50 nM
Kd [8]: 0.188 nM
Kd [9]: 0.057 nM
Kd [10]: 0.023 nM
Kd [11]: 0.006 nM
Kd [12]: 0.016 nM
Kd [13]: 1.8 nM
Kd [14]: 0.084 nM
Kd [15]: 2.36 nM
